Source: patent US9289490B2, “Combinations and uses thereof” (MORPHOSYS AG, priority 2010, dated 2016)
“And” between values parts separate entries of the source, which are not always exact repeats. Identical values can stand only once. Like-named read-outs stand apart in the source and are kept apart here. Marks after values point to notes of the source that are not given here.

Legend:
[1] = test system: RAMOS cells; details: BOR 0.6 mg/kg i.p., MOR202 1 mg/kg i.v.
Protocol: Fifty-five female SCID mice were pre-treated with Cyclophosphamide (75 mg/kg, i.p., twice daily) for two days prior to RAMOS cell inoculation (Day −5 and −4). On the day of inoculation (Day −3), all fifty-five mice were inoculated with 1×10^6 RAMOS cells each (in 100 μL) intravenously into the tail vein. Forty-eight of the mice were randomised by body weight into six groups of eight.

[2] = test system: NCI-H929 MM cells; assay: NCI-H929 bone lysis SCID mouse model, MOR202 and BOR (MicroCT); assay type: in vivo, SCID mice; design: Trabecular Bone Volume (Tb · BV), individual mouse / Trabecular Bone Volume (Tb · BV), Average: unit not given here
From the text: (§1) 63 SCID mice were inoculated on Day (−7) intra-tibially with 2.5×10^6 NCI-H929 MM cells in order to induce bone lysis. Bortezomib (Groups A and AB) and Vehicle Control (Group C) treatments started on Day (−1). MOR202 treatments (Groups B and AB) started on Day 0. Treatment continued for 6 weeks.
MicroCT Scan was used to assess bone lysis and included a 3-dimensional analysis comprising Total Bone Volume (TBV), Trabecular Bone Volume (Tb.BV), Trabecular Pattern Factor (Tb.Pf) and Structure Model Index (SMI). Table 10 above defines each of these parameters.

[3] = test system: AMO-1 cells; assay: ADCC with human PBMCs, flow cytometry (CalceinAM/PI); assay type: cell-based
Protocol: For Tables 3b-c, “Theoretical Combination” represents the addition of the values of MOR202 alone and the values of LEN alone. The normalized data of Table 3b is calculated as follows. Therefore, the specific killing values of Table 3b are calculated by subtracting the values of the controls. Then the specific killing values are compared to the MOR202 group, which is set as 1.
The constant m determines the shape of the dose-effect curve. We used Excel Fit software to carry out a linear regression calculation to estimate the parameters m and D50.
The CI-isobol method provides a quantitative assessment of synergism between drugs. A combination index (CI) is estimated from dose-effect data of single and combined drug treatments. […] Formally, the combination index (CI) of a combined drug treatment is defined as CI=D1/Dx1+D2/Dx2
The data is analysed in the following way: Antagonistic(AB)/C<(A/C)×(B/C) Additive(AB)/C=(A/C)×(B/C) Synergistic(AB)/C>(A/C)×(B/C) where A is the treatment with LEN alone; B is the treatment with MOR202 alone; C is response to the treatment vehicle; AB is combination of treatments A and B.

[4] = test system: NCI-H929 cells; assay: as above; details: LEN 5 μM
[5] = test system: RAMOS cells; assay: RAMOS non-Hodgkin tumor SCID mouse survival model, MOR202 and lenalidomide; assay type: in vivo, SCID mice
Protocol: Sixty-eight female SCID mice were pre-treated with Cyclophosphamide (75 mg/kg, i.p., twice daily) for two days prior to RAMOS cell inoculation (Day −5 and −4). On the day of inoculation (Day −3), all mice were inoculated with 1×10^6 RAMOS cells each intravenously into the tail vein. Sixty-four of the mice were randomised by body weight into eight groups of eight.
The study continued for 98 days and the measured endpoint was survival.

[6] = test system: NCI-H929 human multiple myeloma cells; assay: NCI-H929 bone lysis SCID mouse MM model, MOR202 and LEN (MicroCT); assay type: in vivo, SCID mice; design: Trabecular Bone Volume (Tb · BV), individual mouse / Trabecular Bone Volume (Tb · BV), Mean: unit not given here
Protocol: as §1, with “orthotopically into the right tibia” for “intra-tibially”, “cells (in 5 μL)” for “cells”, “Lenalidomide” for “Bortezomib”, “D)” for “AB)”
MicroCT Scan was used to assess bone lysis and included […] analysis comprising Total Bone Volume (TBV), Trabecular Bone Volume (Tb.BV), Trabecular Pattern Factor (Tb.Pf) and Structure Model Index (SMI). Table 10 defines each of these parameters.

[7] = Bortezomib 0.6 mg/kg i.p. twice per week, MOR202 3 mg/kg i.p. three times per week, 6 weeks, lower = less bone lysis
[8] = group average of 10 mice, Bortezomib 0.6 mg/kg i.p., MOR202 3 mg/kg i.p., 6 weeks
[9] = LEN 50 mg/kg p.o. once daily, MOR202 3 mg/kg i.p. 3 times weekly, 6 weeks, lower = less bone lysis, listed as MOR03087
[10] = group mean of 10 mice, LEN 50 mg/kg p.o., MOR202 3 mg/kg i.p., 6 weeks

B1: MOR202: anti-CD38 antibody whose amino acid sequence is provided in FIG. 11; IgG1 (antibody, V domains shown)
VH: QVQLVESGGGLVQPGGSLRLSCAASGFTFSSYYMNWVRQAPGKGLEWVSGISGDPSNTYYADSVKGRFTISRDNSKNTLYLQMNSLRAEDTAVYYCARDLPLVYTGFAYWGQGTLVTVSS
VL: DIELTQPPSVSVAPGQTARISCSGDNLRHYYVYWYQQKPGQAPVLVIYGDSKRPSGIPERFSGSNSGNTATLTISGTQAEDEADYYCQTYTGGASLVFGGGTKLTVLGQ
Number of mice alive at study termination (day 98) [1]: 0/8 | Day of death (post-inoculation) Mean ([1]; study 98 days): 43.6 days | Day of death (post-inoculation) Median ([1]; study 98 days): 43.5 days | % ILS (based on median death day) ([1]; vs vehicle control): 112% | Structure Model Index (SMI), individual mouse [2, 7]: 2.546 and 2.079 and 2.296 and 2.429 and 1.871 and 2.193 and 2.368 (2×) and 2.436 and 2.511 | Trabecular Pattern Factor (Tb · Pf), individual mouse [2, 7]: 27.363 mm^−1 and 19.479 mm^−1 and 21.858 mm^−1 and 23.814 mm^−1 and 16.347 mm^−1 and 19.748 mm^−1 and 25.212 mm^−1 and 21.276 mm^−1 and 24.031 mm^−1 and 25.056 mm^−1 | Structure Model Index (SMI), Average [2, 8]: 2.31 | Total Bone Volume (TBV), Average [2, 8]: 1.988 mm^3 | Trabecular Bone Volume (Tb · BV), Average [2, 8]: 0.296 | Trabecular Pattern Factor (Tb · Pf), Average [2, 8]: 22.418 mm^−1 | Reduction of bone lysis compared to vehicle control ([2]; non-inoculated tibia = 0%, vehicle = 100% bone lysis, MOR202 alone 12 mg/kg, BOR alone 0.6 mg/kg, combination 3 mg/kg MOR202 and 0.6 mg/kg BOR): up to 55% | Normalized specific killing, MOR202 treatment group set as 1 (Table 3b) ([3]; PBMCs and AMO-1 cells treated with LEN, LEN 10 μM, MOR202 and MOR03207 15 μg/ml, controls subtracted, Exp. 1-3): 1.0 | Normalized specific killing, theoretical combination set as 1 (Table 3c) ([3]; PBMCs and AMO-1 cells treated with LEN, MOR202 0.42 μg/ml, LEN 5 μM, Experiment 1-3): 0.9 and 0.6 | Normalized specific killing, theoretical combination set as 1, AVERAGE (Table 3c) ([3]; PBMCs and AMO-1 cells treated with LEN, MOR202 0.42 μg/ml, LEN 5 μM, average of 3 experiments): 0.8 | Normalized specific killing, MOR202 treatment group set as 1 (Table 4b) ([3]; only effector cells treated with LEN, LEN 10 μM, MOR202 and MOR03207 15 μg/ml, Exp. 1-3): 1.0 | Normalized specific killing, theoretical combination set as 1 (Table 4c) ([3]; only effector cells treated with LEN, MOR202 0.42 μg/ml, LEN 5 μM, Experiment 1-3): 0.8 and 1.2 and 0.7 | Normalized specific killing, theoretical combination set as 1, AVERAGE (Table 4c) ([3]; only effector cells treated with LEN, MOR202 0.42 μg/ml, LEN 5 μM, average of 3 experiments): 0.9 | % dead cells (raw data, Table 7a), Exp. 2 and 3 ([4]; PBMCs and NCI-H929 cells treated with LEN before MOR202, MOR202 0.07 μg/ml, MOR03207 15 μg/ml): 32.54 % dead cells and 43.08 % dead cells | % dead cells (raw data, Table 7a), Exp. 1 ([4]; PBMCs and NCI-H929 cells treated with LEN before MOR202, MOR202 0.2 μg/ml (*), MOR03207 15 μg/ml): 30.64* % dead cells | Normalized specific killing, fractional product combination set as 1 (Table 7b), Exp. 2 and 3 ([4]; PBMCs and NCI-H929 cells treated with LEN, MOR202 0.07 μg/ml): 0.45 and 0.58 | Normalized specific killing, fractional product combination set as 1 (Table 7b), Exp. 1 ([4]; PBMCs and NCI-H929 cells treated with LEN, MOR202 0.2 μg/ml (*)): 0.42* | Normalized specific killing, AVERAGE (Table 7b) ([4]; PBMCs and NCI-H929 cells treated with LEN, MOR202 0.2 or 0.07 μg/ml, average of 3 experiments): 0.48 | % dead cells (raw data, Table 8a), Exp. 2 and 3 ([4]; only effector cells treated with LEN before MOR202, MOR202 0.07 μg/ml, MOR03207 15 μg/ml): 53.74 % dead cells and 47.00 % dead cells | % dead cells (raw data, Table 8a), Exp. 1 ([4]; only effector cells treated with LEN before MOR202, MOR202 0.2 μg/ml (*), MOR03207 15 μg/ml): 26.60* % dead cells | Normalized specific killing, fractional product combination set as 1 (Table 8b), Exp. 2 and 3 ([4]; only effector cells treated with LEN, MOR202 0.07 μg/ml): 0.97 and 0.91 | Normalized specific killing, fractional product combination set as 1 (Table 8b), Exp. 1 ([4]; only effector cells treated with LEN, MOR202 0.2 μg/ml (*)): 1.09* | Normalized specific killing, AVERAGE (Table 8b) ([4]; only effector cells treated with LEN, MOR202 0.2 or 0.07 μg/ml, average of 3 experiments): 0.99 | Number of mice alive at study termination (day 98) ([5]; LEN 100 mg/kg (Table 14) p.o., MOR202 1 mg/kg i.v.): 0/8 | Day of death (post-inoculation) Mean ([5]; LEN 100 mg/kg (Table 14) p.o., MOR202 1 mg/kg i.v. twice weekly, study 98 days): 49.6 days | % ILS (based on median death day) ([5]; LEN 100 mg/kg (Table 14) p.o., MOR202 1 mg/kg i.v., vs vehicle control): 155% | Day of death (post-inoculation) Median ([5]; LEN 100 mg/kg (Table 14; Table 13: 50 mg/kg) p.o. once daily, MOR202 1 mg/kg i.v. twice weekly, study 98 days): 51 days | Structure Model Index (SMI), individual mouse [6, 9]: 2.386 and 1.818 and 2.423 and 2.450 and 1.860 and 2.461 and 2.558 and 2.247 and 2.318 and 2.275 | Trabecular Pattern Factor (Tb · Pf), individual mouse [6, 9]: 27.049 mm^−1 and 15.631 mm^−1 and 27.631 mm^−1 and 27.523 mm^−1 and 17.887 mm^−1 and 21.405 mm^−1 and 26.345 mm^−1 and 20.327 mm^−1 and 25.843 mm^−1 and 22.402 mm^−1 | Structure Model Index (SMI), Mean [6, 10]: 2.28 | Total Bone Volume (TBV), Mean [6, 10]: 2.467 mm^3 | Trabecular Bone Volume (Tb · BV), Mean [6, 10]: 0.323 | Trabecular Pattern Factor (Tb · Pf), Mean [6, 10]: 23.204 mm^−1 | Structure Model Index (SMI), Mean ([6]; group mean of 10 mice, LEN 50 mg/kg p.o., MOR202 3 mg/kg i.p., 6 weeks, listed as MOR03087): 2.280 | Reduction of bone lysis compared to vehicle control ([6]; non-inoculated tibia = 0%, vehicle = 100% bone lysis, MOR202 alone 12 mg/kg, LEN alone 50 mg/kg, combination 3 mg/kg MOR202 and 50 mg/kg LEN): up to 55%
